Measurements published in patent US20070161078A1.

Columns and labels:
[1] = molecular target: MBP.NS1 H5N1B (ESEV) (influenza A H5N1) (UniProt Q6DP28); test: G assay titration
[2] = molecular target: MBP.NS1 H5N1B (ESEV) (influenza A H5N1) (UniProt Q6DP28); test: direct binding assay titration

Substance	EC50 [1] [µg/mL]	EC50 [2] [µg/mL]
INADL d8 (from UniProt Q8NI35 1431-1525)	1.8	6.1
MAST2 d1 (from UniProt Q6P0Q8 1098-1197)	0.9	–
Magi3 d1 (from UniProt Q5TCQ9 18-106)	0.9	5
NeDLG d1,2 (from UniProt Q92796 124-316)	0.2	0.8
